Columns and labels:
Assay in all cases: In vitro methylation with GLP, products identified by LC-MS
Type in all cases: biochemical
[1] = target: T1, recombinant human H1.0 protein (Homo sapiens, UniProt P07305); details: 1 μg full-length protein
T1 construct: full-length recombinant human H1.0 (NEB, M2501S); purchased NEB M2501S (H1.0); M0235S (G9A)
Description: (§1) In order to identify the precise sites of methylation by G9A and GLP methyltransferases on histone H1.0, in vitro methylation assays were performed and subsequently analyzed by Liquid Chromatography and High-resolution Mass Spectrometry (LC-MS) analysis. Methylation reactions were set up using either G9A methyltransferase (NEB, M0235S, Lot #0031201) or GLP methyltransferase (Cayman Chemical, 10755). The methyl donor in each reaction was unlabeled S-Adenosyl-L-Methionine (NEB, B9003S). […]
(§2) For the Liquid Chromatography and High-resolution Mass Spectrometry (LC-MS) analysis, samples were prepared as described above and about 1 μg o the product was injected onto a Thermo Scientific Easy nLC system configured with a 10 cm×100 um trap column and a 25 cm×100 um ID resolving column. […] This ensured optimal full-scan data for quantification. […]
(§3) Protein identification was performed using Thermo Scientific Proteome Discoverer version 1.4 (including Sequest and Percolator algorithms) using RefSeqHuman sequence database. […] Protein quantification was performed using Pinpoint version 1.4 software. The Pinpoint quantification workflow included importing the Proteome Discoverer .msf files as spectral libraries. Identified peptides were subsequently quantified in MS .raw files using the Pinpoint peak finding, chromatographic alignment and area calculation algorithms. […]

[2] = target: T2, unmodified H1.0 peptide ([…] (SEQ ID NO:42)) (Homo sapiens, UniProt P07305); details: 10 U enzyme, 3.2 mM S-Adenosyl-L-Methionine, 37° C. 1 hour, spectral counts
T2 construct: purchased ThermoFisher Scientific (peptide); NEB (G9A) M0235S (G9A)
Description: as §1, §2, §3

[3] = target: T3, K180 dimethylated H1.0 peptide (SEQ ID NO:3) (Homo sapiens, UniProt P07305); details: K180 dimethylated peptide as substrate
T3 construct: purchased ThermoFisher Scientific (peptide); Cayman Chemical (GLP) 10755 (GLP)
Description: as §1, §2, §3

B1: GLP: recombinant G9A-like protein (GLP) methyltransferase (Cayman Chemical, 10755) (protein, UniProt Q9H9B1 2-1298, looked up)
Histone-lysine …: AAADAEAVPARGEPQQDCCVKTELLGEETPMAADEGSAEKQAGEAHMAADGETNGSCENSDASSHANAAKHTQDSARVNPQDGTNTLTRIAENGVSERDSEAAKQNHVTADDFVQTSVIGSNGYILNKPALQAQPLRTTSTLASSLPGHAAKTLPGGAGKGRTPSAFPQTPAAPPATLGEGSADTEDRKLPAPGADVKVHRARKTMPKSVVGLHAASKDPREVREARDHKEPKEEINKNISDFGRQQLLPPFPSLHQSLPQNQCYMATTKSQTACLPFVLAAAVSRKKKRRMGTYSLVPKKKTKVLKQRTVIEMFKSITHSTVGSKGEKDLGASSLHVNGESLEMDSDEDDSEELEEDDGHGAEQAAAFPTEDSRTSKESMSEADRAQKMDGESEEEQESVDTGEEEEGGDESDLSSESSIKKKFLKRKGKTDSPWIKPARKRRRRSRKKPSGALGSESYKSSAGSAEQTAPGDSTGYMEVSLDSLDLRVKGILSSQAEGLANGPDVLETDGLQEVPLCSCRMETPKSREITTLANNQCMATESVDHELGRCTNSVVKYELMRPSNKAPLLVLCEDHRGRMVKHQCCPGCGYFCTAGNFMECQPESSISHRFHKDCASRVNNASYCPHCGEESSKAKEVTIAKADTTSTVTPVPGQEKGSALEGRADTTTGSAAGPPLSEDDKLQGAASHVPEGFDPTGPAGLGRPTPGLSQGPGKETLESALIALDSEKPKKLRFHPKQLYFSARQGELQKVLLMLVDGIDPNFKMEHQNKRSPLHAAAEAGHVDICHMLVQAGANIDTCSEDQRTPLMEAAENNHLEAVKYLIKAGALVDPKDAEGSTCLHLAAKKGHYEVVQYLLSNGQMDVNCQDDGGWTPMIWATEYKHVDLVKLLLSKGSDINIRDNEENICLHWAAFSGCVDIAEILLAAKCDLHAVNIHGDSPLHIAARENRYDCVVLFLSRDSDVTLKNKEGETPLQCASLNSQVWSALQMSKALQDSAPDRPSPVERIVSRDIARGYERIPIPCVNAVDSEPCPSNYKYVSQNCVTSPMNIDRNITHLQYCVCIDDCSSSNCMCGQLSMRCWYDKDGRLLPEFNMAEPPLIFECNHACSCWRNCRNRVVQNGLRARLQLYRTRDMGWGVRSLQDIPPGTFVCEYVGELISDSEADVREEDSYLFDLDNKDGEVYCIDARFYGNVSRFINHHCEPNLVPVRVFMAHQDLRFPRIAFFSTRLIEAGEQLGFDYGERFWDIKGKLFSCRCGSPKCRHSSAALAQRQASAAQEAQEDGLPDTSSAAAADPL
- sites of methylation on full-length H1.0 [1]: methylates a large number of lysine residues on the C-terminal tail of H1.0, lacking the specificity of G9A
- peptides dimethylated at H1.0K180, % of all peptides [2]: 96.6%
- peptides further methylated (H1.0K180 and H1.0K174), % of peptides [3]: 1.02%

Reference: patent US20240255509A1, “COMPOSITIONS AND METHODS RELATED TO K180 DIMETHYLATED H1.0 PROTEIN” (Aelan Cell Technologies, Inc., priority 2016, published 2024)
